Measured values from US20110131028A1, “CELL POPULATION SYSTEM AND PROCESS” (priority 2006, published 2011).

Test system: B cells isolated from spleen
Test: Survival of unstimulated B cells in culture, lognormal time-to-die fit
Type: cell-based
Settings: increasing IL-4 concentration; FIG. 3D
Description: As indicated above, the probability distribution is determined by simulating the decreasing size of a cell population over time in the absence of cell division. For example, when naive T or B lymphocytes are purified from lymphoid tissue and placed in tissue culture without stimulation, they progressively die by apoptosis, apparently from the absence of homeostatic survival signals that are present in vivo. To determine a probability distribution representing probabilities for cell death, small resting B cells from spleen/lymphnode can be placed in culture under different conditions and their viability measured by propidium iodide uptake at step 202. Cell numbers can be counted by reference to beads, as described in Deenick.
At step 204, the two parameters of the lognormal probability distribution, namely the mean μ and standard deviation σ, are determined using a standard fitting procedure (the Matlab fmincon function) that varies μ and σ to obtain the closest match between the corresponding lognormal survival curve (i.e., the simulated ‘survival curve’ representing the decreasing size of the cell population over time, the curve being generated from a lognormal probability distribution representing probabilities for times to die with distribution parameters μ and σ) and the experimental data. […]

B1: IL-4: cytokine that affects B cell viability without stimulating cell division (protein, UniProt P05112 25-153, looked up)
Interleukin-4: HKCDITLQEIIKTLNSLTEQKTLCTELTVTDIFAASKNTTEKETFCRAATVLRQFYSHHEKDTRCLGATAQQFHRHKQLIRFLKRLDRNLWGLAGLNSCPVKEANQSTLENFLERLKTIMREKYSKCSS
With B1 the “mean time to die μ” value was “increases”.
